Test results: the supplement of paper PMC7125110
± gives the standard error. For part of these data: Variants at the floor of the assay were thinned out.

B1: glmS ribozyme (parent)
chain: AUAAAAGCGCCAGAACUACAGAAAUGUAGUUGACGAGGAGGAGGUUUAUCGAAUUUUCGGCGGAUGCCUCCAAA

Tests used:
Settings in all cases: with glucosamine-6-phosphate
glucosamine-6-phosphate [1] = variants of: B1; assay: kcat; higher = faster cleavage; RNA array
Summary of the method: (§1)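 Barcoded glmS ribozyme variants on sequenced MiSeq chips were transcribed in situ by E. coli RNA polymerase and tracked through a hybridised Cy3 probe at 37 °C. Glucosamine-6-phosphate (40 μM to 10 mM) in HEPES/KCl/Mg(OAc)2 buffer was flowed in, and tiles were imaged over ~14 h. Signals were normalised to baseline and to non-cleaving reference variants; per-tile medians were fit to one- or two-exponential decays to give kobs. kcat and KM came from weighted Michaelis–Menten fits across concentrations.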

glucosamine-6-phosphate [2] = variants of: B1; assay: self-cleavage kobs at 40 uM GlcN6P; higher = faster cleavage; RNA array
Summary of the method: as §1

glucosamine-6-phosphate [3] = variants of: B1; assay: self-cleavage kobs at 160 uM GlcN6P; higher = faster cleavage; RNA array
Summary of the method: as §1

glucosamine-6-phosphate [4] = variants of: B1; assay: self-cleavage kobs at 640 uM GlcN6P; higher = faster cleavage; RNA array
Summary of the method: as §1

glucosamine-6-phosphate [5] = variants of: B1; assay: self-cleavage kobs at 2500 uM GlcN6P; higher = faster cleavage; RNA array
Summary of the method: as §1

glucosamine-6-phosphate [6] = variants of: B1; assay: self-cleavage kobs at 10000 uM GlcN6P; higher = faster cleavage; RNA array
Summary of the method: as §1

glucosamine-6-phosphate [7] = variants of: B1; assay: KM; higher = weaker cofactor use; RNA array
Summary of the method: as §1

Variant	kcat (glucosamine-6-phosphate [1]) [s⁻¹]	self-cleavage kobs at 40 uM GlcN6P (glucosamine-6-phosphate [2]) [s⁻¹]	self-cleavage kobs at 160 uM GlcN6P (glucosamine-6-phosphate [3]) [s⁻¹]	self-cleavage kobs at 640 uM GlcN6P (glucosamine-6-phosphate [4]) [s⁻¹]	self-cleavage kobs at 2500 uM GlcN6P (glucosamine-6-phosphate [5]) [s⁻¹]	self-cleavage kobs at 10000 uM GlcN6P (glucosamine-6-phosphate [6]) [s⁻¹]	KM (glucosamine-6-phosphate [7]) [µM]
AUAAAAGCGCCAGAACUACAGAAAUGUAGUAGACGAGGAGGAGGUUUAUGGAAUUUUCGGCGGACGUCUCCAAA	0.000126 ± 2.3e-05	8.02e-05 ± 1.6e-05	0.000177 ± 5e-05	0.000147 ± 4.9e-05	0.000191 ± 4.1e-05	0.000104 ± 1.9e-05	–
AUAAAAGCGCCAGAACUACAGAAAUGUAGUAGACGAGGAGGAGGUUUAUCGAAUUUUCGGCGGAUGCCUGCAAA	0.000226 ± 2.5e-05	–	6.6e-05 ± 1.6e-05	0.000116 ± 1.3e-05	0.000169 ± 2.4e-05	0.000235 ± 3.2e-05	570 ± 170
AUAAAAGCGCCAGAACUACAGAAAUGUAGUAGACGAGGAGGAGGUUUAUCGAAUUUUCGGCGGAUGCCUUCAAA	0.0129 ± 0.0056	0.000386 ± 5.3e-05	0.000843 ± 0.00019	0.00235 ± 0.00031	0.0115 ± 0.0032	0.0113 ± 0.0017	–
AUAAAAGCGCCAGAACUACAGAAAUGUAGUAGACGAGGAUGAGGUUUAUCGAAUUUUCGGCGGAUGCCUCCAAA	0.00159 ± 0.00017	6.29e-05 ± 1.4e-05	–	0.000444 ± 0.00018	0.00109 ± 0.00024	0.00148 ± 0.00022	1080 ± 240
AUAAAAGCGCCAGAACUACAGAAAUGUAGUAGACGAGGAGGAGGUUUAUCGAAUUUUCGGCGGAUGAUUCCAAA	6.87e-05 ± 1.5e-05	–	–	0.000122 ± 3.5e-05	7.63e-05 ± 1.4e-05	5.53e-05 ± 1.3e-05	–
AUAAAAGCGCCAGAACUACAGAAAUGUAGUAGACGAGGAGGAGGUUUAUCGAAUUUUCGGCGGAUGCGUCCAAA	3.4e-05 ± 9.3e-07	–	–	–	2.78e-05 ± 1.1e-05	3.32e-05 ± 8.1e-06	408 ± 78
AUAAAAGCGCCAGAACUACAGAAAUGUAGUAGACGAGGAGGAGGUUUAUCGAGUUUUCGGCGGAUGCCUCCAAA	0.0153 ± 0.0017	0.00035 ± 4.3e-05	0.00107 ± 0.00018	0.0038 ± 0.00071	0.0096 ± 0.0019	0.0127 ± 0.002	1860 ± 270
